In publication PMC8511477 (Synthetic Biology, 2021) one finds Km, km and kcat data, which are given here for four molecules.

Common to all, as to settings: 2.5 mM ATP, 0.5 mM CoA, 5 mM MgCl2, pH 7.5, 37 °C
The test system of one data set is T1, ArACS.
T1 construct: gene acs; C-terminal 6xHis (pET29b+), expressed in E. coli BL21*(DE3) delta-patZ, Ni-NTA purified; species only in supplement
Briefly: myokinase/pyruvate kinase/lactate dehydrogenase coupled NADH assay, […] nm. The format is biochemical.

A further data set deals with T2, EcACS (Escherichia coli, UniProt P27550).
T2 construct: gene acs

Substrate in data set [1]: CC(=O)O
Briefly: purified protein.

Substrate in data set [2]: O=CO
The data set is described as follows: purified protein.

One may read the Km as the substrate concentration at which the rate is half of its maximum. Broadly, the kcat is the number of substrate molecules converted per active site and unit of time at saturation.

Regarding `O=CO` [formate], the Michaelis constant (Km) with ArACS stood at 38.5 ± 19.3 mM. For the molecule `CC(=O)O` [acetate], on EcACS, the km result is on record as “We assayed these homologs using formate as well as acetate, the likely native substrate”.

B1: MhACS (Marinithermus hydrothermalis DSM 14884) (protein)
chain: MERIEAVLKENRRFEPPEEFRKRARIQSEAEYEALYRESLEDPEAFWGRVAEELHWFEPWTQVLEWNPPHARWFVNGKTNLSYNALDRHVATWRKNKAAIIWEGEPGEERVLTYHDLWREVQRFANALKQLGVGKGDRVTIYMPMIPETAIAMLACARIGAVHSVVFGGFSANALAERIKDAEAKLLITADGGYRRGRVVPLKAQADEALAETPSVEHVVVVRRTGEAVPMQPGRDHWYHELVESVPDHCPPEVMDAEDPLFILYTSGSTGKPKGVLHTTGGYMVYTYLTTKLVFDLKDEDTYWCTADVGWITGHSYIVYGPLVNGATTLMYEGAPNHPEPDRFWRIVDKYGVTIFYTAPTAIRAFMKWGEAWPRKHRLDSLRLLGTVGEPINPEAWLWYHQVIGQGRCPIVDTWWQTETGGIMITTLPGAHAAKPGFAGKPFFGVAPEIRDAEGNRVETPEEGGYLVLTRPWPSMLRTVWGDPERYRRQYWSQYPDAYFTGDGARRDADGYYLILGRVDDVLNVAGHRLGTMELESALVSHPDVAEAAVVGRPHPEKGEAIVAFVTLKSHARPSEALREALKAHVANTIGPIARPDEIRFAEALPKTRSGKIMRRLLRQIAAGETEIKGDTSTLEDREVVEQLKRGE
Take B1: in “purified protein [1]”, the Km turned out to be 0.089 ± 0.060 mM and the turnover number (kcat) was 15.1 s⁻¹.

B2: EcACS (Escherichia coli K-12) (protein)
chain: MSQIHKHTIPANIADRCLINPQQYEAMYQQSINVPDTFWGEQGKILDWIKPYQKVKNTSFAPGNVSIKWYEDGTLNLAANCLDRHLQENGDRTAIIWEGDDASQSKHISYKELHRDVCRFANTLLELGIKKGDVVAIYMPMVPEAAVAMLACARIGAVHSVIFGGFSPEAVAGRIIDSNSRLVITSDEGVRAGRSIPLKKNVDDALKNPNVTSVEHVVVLKRTGGKIDWQEGRDLWWHDLVEQASDQHQAEEMNAEDPLFILYTSGSTGKPKGVLHTTGGYLVYAALTFKYVFDYHPGDIYWCTADVGWVTGHSYLLYGPLACGATTLMFEGVPNWPTPARMAQVVDKHQVNILYTAPTAIRALMAEGDKAIEGTDRSSLRILGSVGEPINPEAWEWYWKKIGNEKCPVVDTWWQTETGGFMITPLPGATELKAGSATRPFFGVQPALVDNEGNPLEGATEGSLVITDSWPGQARTLFGDHERFEQTYFSTFKNMYFSGDGARRDEDGYYWITGRVDDVLNVSGHRLGTAEIESALVAHPKIAEAAVVGIPHNIKGQAIYAYVTLNHGEEPSPELYAEVRNWVRKEIGPLATPDVLHWTDSLPKTRSGKIMRRILRKIAAGDTSNLGDTSTLADPGVVEKLLEEKQAIAMPS
Consider B2, for which the Km in “purified protein [2]” was determined as 54.4 ± 14.9 mM.
